Assay [1] deals with C. elegans Hsp90 (HSP-90) (C. elegans) (UniProt Q18688). The experiment in a line: AUC; sedimentation velocity with fluorescence detection; 600 nM ATTO 488-labelled GRLBDm, 3 μM unlabelled chaperones and cofactors, 2 mM ATPγS; 20 mM HEPES, 20 mM KCl, 5 mM MgCl2, 50 μM dexamethasone, pH 7.5; 42,000 rpm, 20 °C.
Assay [2] shares this target. The experiment in a line: AUC; sedimentation velocity with fluorescence detection; 600 nM ATTO 488-labelled GRLBDm, 3 μM unlabelled chaperones and cofactors, no nucleotide; 20 mM HEPES, 20 mM KCl, 5 mM MgCl2, 50 μM dexamethasone, pH 7.5; 42,000 rpm, 20 °C.

On to “ATTO 488-labelled GRLBDm, the ligand-binding domain of the human glucocorticoid receptor stabilized by mutagenesis (F602S/A605V/V702A/E705G/M752T) (domain or fragment)”, for which the fraction of GRLBDm bound was determined as 0.22 in assay [1] and 0.49 in assay [2]. The substance further displayed a fraction of GRLBDm bound (with Cep23/DAF-41 added) in assay [1] of 0.28.

For the origin of these results see publication PMC7329908.
